The numbers were not newly measured in PMC7739374, which cites them from elsewhere.

In the series the target is Sos (Homo sapiens) (UniProt Q07889).

On to Ras (from UniProt P01112), for which the dissociation constant Kd (commonly the free concentration of one partner at which half of the binding sites on the other are occupied at equilibrium, for simple one-to-one binding) is 28 µM.
